Test results reported in the supplement of paper PMC9170038.

System: MS2 coat protein
Assay: apparent KD of MS2 coat protein; designed switch direction (-1 OFF switch, 1 ON switch): -1; higher = weaker reporter binding
How it was run: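 On Illumina chips, designed RNA switches with common flanks were made by stalled E. coli RNA polymerase. Titrations with SNAP-549-labelled MS2 coat protein, doubling from 0.7 or 1.5 nM to 3 µM, were done with no input, with 200 uM small-molecule ligand, or with an oligonucleotide input. Apparent KD is the median per design over clusters, from curve fits of normalised cluster fluorescence.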

[1] = Eterna round: R95, input ligand: FMN 200 uM
[2] = Eterna round: R95, input ligand: microRNA oligo, concentration not stated
[3] = Eterna round: R95, input ligand: none
[4] = input ligand: microRNA oligo, concentration not stated

Sequence	apparent KD of MS2 coat protein [1]	apparent KD of MS2 coat protein [2]	apparent KD of MS2 coat protein [3]	apparent KD of MS2 coat protein (input ligand: FMN 200 uM)	apparent KD of MS2 coat protein (input ligand: none)	apparent KD of MS2 coat protein [4]
ACAAGCUUUUUGCAAUUUAGUUUUGUUGCUUCGUAGGUAACAUGAGGAUCACCCAUGUAAGAGUGAUGUCGUCUUAU [JR_SV3TOV2_Sub084] (puzzle: Sensor v3, turn-off variant 2)	520 nM	141 nM	609 nM			
GUCUACGCAGGAUAUAUCCCUCAGGACAUGAGGAUCACCCAUGUCUCCUUAUGCCUUCCCAUAGAAGGGCGUAGAA [Eternabot (L1) Solution 82] (Eterna round: R97, puzzle: Exclusion 5)				12.6 nM	13.2 nM	
UGGGUACUCCAUAGAAGAAACAUGAGGAUCACCCAUGUAGGGCAAGUUUUUUGCUCGUCAUAGGUUGAGGGAUUGGA [JR_SV3TOV1_Sub016] (puzzle: Sensor v3, turn-off variant 1)	685 nM	343 nM	978 nM			
GGCCCUAAGGUCAGAUUCACAAGCUUUUUGCUCGUUUUAACAUGAGGAUCACCCAUGUCUAGUGGAUUUGAUCCUUA [Sensor v3, turn-off variant 2 (MOD of Indiso v.7)] (puzzle: Sensor v3, turn-off variant 2)	21.8 nM	20 nM	18.9 nM			
GUAUCGUGAGGAUAUCAUGAUUGACUUAAUUUAUGUCAGCGUGAGAAGGCACAUGAGGAUCACCCAUGUGAUUA [Ex4 - 3 - 6] (puzzle: Exclusion 4)		20.5 nM				
CCAUGUUAGCAGGAUAUGCAAUUAUUCUUUUAAGCAGAAGGGCUUACAUGAGGAUCACCCAUGUAACAUUUCAU [JR_E6_Sub081] (puzzle: Exclusion 6)		17.3 nM				
GGCCUGGAAGGAUAUACAUGAGGAUCACCCAUGUGAAGCCGGUGCAAAUUGACACGAUGUAGAAGGUCCAGCCG [Eternabot (L1) Solution 92] (Eterna round: R97, puzzle: Exclusion 3)				467 nM	172 nM	
CUGUAGCUAUGAGGAUAUGCCACAAAAGUAGUUGCAGAAGGCAUCCCUACCCAGUAAGAACAUGAGGAUCACCCAUGUGAUCUG [Eternabot solution 43] (Eterna round: R96, puzzle: Exclusion NG 1)				71.6 nM	63.4 nM	44.5 nM
AAUUACAAGCAAAGAUCCUACAUGAGGAUCACCCAUGUGCUCGUCUUAUAAAGUACUAUCACGAAAGUGAUAGUACA [Mat - Sensor v3 - turn-off var 1 - Eli Mod - D76] (puzzle: Sensor v3, turn-off variant 1)	222 nM	13.5 nM	232 nM			
UUAAAUCAUGUAGGAUAUGCGUGGCGAAGCUAUGCAGAAGGACAUGAGGAUCACCCAUGUUCUAGCGUCCGCGUACGGAUGCAA [JL Eng1 1.21 mod 10] (Eterna round: R96, puzzle: Exclusion NG 1)				144 nM	18.6 nM	12 nM
UAUUAGCUAGGAUAUACAUGAGGAUCACCCAUGUCACGGGUCCACUCGUCCUAUGCGUGUAGAAGGAGCGACCC [JL Ceriza mod 2] (puzzle: Exclusion 3)		20.6 nM				
AUAAAACAUGAGGAUCACCCAUGUCAGGAUAUACGAUUCCACCCUAACUGCGUGGAACGUAGAAGGGACAUAGG [Exclusion 1 (MOD6 Esqu)] (Eterna round: R97, puzzle: Exclusion 1)				62.7 nM	76.4 nM	
AAAACUGAAGGAUAUGCCAGGGUGAGAGCUGGUGACGUUUAACAUGAGGAUCACCCAUGUAGAAGGUCAAAACA [Usate] (puzzle: Exclusion 2)		12.6 nM				
AAACCUGCCCAUGACCGCAAGCCUUUUGCUUGUCUUACCACAUGAGGAUCACCCAUGUGACAUGGGCUCCUUAUAAA [Solabixe] (puzzle: Sensor v3, turn-off variant 2)	14.1 nM	10.5 nM	13.5 nM			
GUGUUGUCAGGAUAUCUUACAUAACAAUCGUUGUUACCAUUGGAGAAGGGACAUGAGGAUCACCCAUGUUAACC [tap-tap-tappy46] (Eterna round: R97, puzzle: Exclusion 4)				18.9 nM	19.6 nM	
UACAUGAGGAUCACCCAUGUUUUGUCGUGUAUGGUAUUUAUCUAGGAUAUCAUUUUAUUUAGUUAUGAGAAGGAGAAUAUUAAU [JMF's solution 79] (Eterna round: R96, puzzle: Exclusion NG 3)						36.1 nM
GAAAAGGUAGGAUAUACGAAAAAUAAGGGUAGAAAAAAAACACAUGAGGAUCACCCAUGUAGAAGGACCAAAAG [salish99_ex2_r3_082] (puzzle: Exclusion 2)	65.7 nM	27.8 nM	33 nM			
